Here are results for one molecule from patent US20210025877A1 (CYTOMX THERAPEUTICS, published 2021).

This assay has as its target T1, anti-PDL1 activatable antibody PL07-2001-C5H9v2 (intact).
T1 construct: In the Wes assay the sample is separated by SDS-based capillary electrophoresis before probing; also called AA
In words: Wes capillary electrophoresis immunoassay, mouse plasma.

T1 sequence (heavy, as listed by the source, chain 1 of 2): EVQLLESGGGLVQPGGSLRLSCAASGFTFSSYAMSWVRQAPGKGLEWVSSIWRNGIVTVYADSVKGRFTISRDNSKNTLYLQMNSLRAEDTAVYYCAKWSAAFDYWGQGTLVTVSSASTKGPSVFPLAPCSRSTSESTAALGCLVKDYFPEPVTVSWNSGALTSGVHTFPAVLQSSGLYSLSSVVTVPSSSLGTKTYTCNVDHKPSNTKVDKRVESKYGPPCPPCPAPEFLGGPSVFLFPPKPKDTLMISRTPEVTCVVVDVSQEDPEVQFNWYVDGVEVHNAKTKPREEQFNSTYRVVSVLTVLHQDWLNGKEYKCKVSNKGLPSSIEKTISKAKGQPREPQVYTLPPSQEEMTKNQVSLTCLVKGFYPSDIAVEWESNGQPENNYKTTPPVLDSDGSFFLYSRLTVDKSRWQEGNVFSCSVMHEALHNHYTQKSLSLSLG
T1 sequence (light, as listed by the source, chain 2 of 2): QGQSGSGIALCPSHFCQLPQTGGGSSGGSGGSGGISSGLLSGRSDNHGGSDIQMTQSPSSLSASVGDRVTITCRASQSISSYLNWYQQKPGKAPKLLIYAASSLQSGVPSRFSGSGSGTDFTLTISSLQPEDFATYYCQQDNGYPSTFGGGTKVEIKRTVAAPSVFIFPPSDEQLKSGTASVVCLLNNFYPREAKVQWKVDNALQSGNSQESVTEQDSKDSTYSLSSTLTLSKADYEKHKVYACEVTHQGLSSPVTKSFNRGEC

B1: anti-idiotypic antibody 17G1 (antibody, mouse IgG2a, kappa, V domains shown)
VH: EVQLVESGGDLVKPGGSLKVSCAASGFTFSSYGMSWVRQTPDKRLEWVATISPSGIYTYYPVTVKGRFTISRDNAKNTLYLQMSSLKSEDTAMYFCARHHPNYGSTYLYYIDYWGQGTALTVSS
VL: NIMMTQSPSSLAVSAGEKVTMACKSSQSVFSSSNQKNYLAWYQQKPGQSPKILIYWAFTRESGVPDRFSGSGSGTDFTLTISSVQAEDLAVYYCYQYLSSLTFGAGTKLEVKA
notes: Mouse monoclonal, mIgG2a heavy chain and mouse kappa light chain; also called anti-id antibody 17G1; anti-id 17G1 antibody
Take B1: the binding result is “binds”.
